{"source": "patent US20250041410A1", "about": "(Y MABS THERAPEUTICS, published 2025)", "proteins": {"B1": {"name": "GD2-SADA complex (other)", "chain": "EIVMTQTPATLSVSAGERVTITCKASQSVSNDVTWYQQKPGQAPRLLIYSASNRYSGVPARFSGSGYGTEFTFTISSVQSEDFAVYFCQQDYSSFGCGTKLEIKRGGGGSGGGGSGGGGSGGGGSGGGGSGGGGSQVQLVESGPGVVQPGRSLRISCAVSGFSVTNYGVHWVRQPPGKCLEWLGVIWAGGITNYNSAFMSRLTISKDNSKNTVYLQMNSLRAEDTAMYYCASRGGHYGYALDYWGQGTLVTVSSGGGGSGGGGSGGGGSGGGGSHVQLVESGGGLVQPGGSLRLSCAASGFSLTDYGVHWVRQAPGKGLEWLGVIWSGGGTAYNTALISRFTISRDNSKNTLYLQMNSLRAEDTAVYYCARRGSYPYNYFDAWGCGTLVTVSSGGGGSGGGGSGGGGSGGGGSGGGGSGGGGSQAVVTQEPSLTVSPGGTVTLTCGSSTGAVTASNYANWVQQKPGQCPRGLIGGHNNRPPGVPARFSGSLLGGKAALTLLGAQPEDEAEYYCALWYSDHWVIGGGTKLTVLGTPLGDTTHTSGKPLDGEYFTLQIRGRERFEMFRELNEALELKDAQAGKEPGGSGGA", "notes": "A single polypeptide: anti-GD2 scFv, humanized C825 (anti-DOTA) scFv and the p53 tetramerization (SADA) domain; It is written here as one chain that associates with itself; In the mass photometry assay it was a concentration-dependent mixture of monomer, dimer, tetramer and higher multimers; also called GD2-SADA construct; GD2-SADA conjugate"}}, "biological_target": "the molecule itself", "experiment": "mass photometry (Refeyn) after dilution in PBS and 60 min at 37 C; self-association of the chain into dimer and tetramer", "description": "For this example, a Refeyn Mass photometer (Refeyn Ltd, Oxford UK) was used according to the manufacturer's instructions, with the following settings:\nThe GD2-SADA construct was diluted in PBS, and incubated for 60 minutes at 37° C. before measuring the size distribution. Following dilutions were made: 150 nM, 100 nM, 50 nM, 10 nM, 5 nM, 1 nM and 100 PM and subjected to Mass photometry using the Refeyn Mass photometer.", "data": [{"protein": "B1", "values": [{"measurement": "binding result", "value": "binds"}]}]}
